Experiment: soluble on expression in E. coli; label from the status in PepcDB or PDB records

Soluble on expression in E. coli, not soluble:
MGSDKIHHHHHHMNLDHLRYFVALSRTENYTQTAKLLHITQPSLTKAIHSLEAELNIDLFQKAGRSVTLTPAGKVFASDVESALLLLDKSVTNIKRFDQQKAPIRIAALRTLSIKWLPDIAQRFLQLSPHAAVQFQFNTDTGLSPDILNGLRNNKYDVAFCSKMDHFSDIEFFPVAEQTMVCITPTTHPLANRSSINLAETLAYPQITFSQRSGLHPIMQKLFNDCGGQPISAYAVEEDQAIAGLVASGFGIAVVPNMSILQTMPVKIIPLSFPTWQRILYMGTLKHRTPQPAVEEFITFVRDQSKTLSVNNI
MGSDKIHHHHHHMNLKTSIENNVHIRAVAAAADELGLETYIVGGYVRDLIMDRDNKDIDFVCLGSGIELAQKVAANMGEHVQVHIFKTFGTAMINAGDTELEFVGARKESYDFNSRKPTVESGTLEDDQLRRDFTINALAICLNKARFGELVDPFDGVSDIKRKIIKTPQDALLTFSDDPLRMIRAVRFATQLNFDIEAATFQAIATNKDRLSIVSMERISQELNKIISAPVPSYGFKLLYISGVLKDIFPEFVALHGVESIDNKSHKDNFYHTLQVLDNVAKVSDDLWLRWAAILHDIAKPLTKRFVERIGWTFHGHEDKGARMVPAIFRKLRLPLNEKMDMVAKLVRLHLRPISLVKDEVTDSAVRRLMFEAGEHFSDLMILCRADVTSKNNNKVKRYLENFDKVERKVIEVEEKDQQRNFQPVVSGEDIMKTFDIKPGKVIGDIKADLIEAILEGDVQNEYEILFPFMINLAEKKYGLVKPETH
MGSDKIHHHHHHMNLRQLKYFLATAELGQVSRAASELSISQSSVTTAIRELEQSMGTTLFNRTAHGMDLTPTGRDLMSAARDVMEKVQIAQDIGQNHSDVTGTINIAATYTVCGYFLPYHLDRLSHRFPNLTINISELNRESIEEGLISNRFDVAVILTSNTSNPELATQTLMRSHRRLWVPQNHPLAGREFASFEDVAAQDYIMLTVDEAANTSMKYWGPTGLMPRVRMRTSSTEAVRSMVANGLGVTILSDMVYRPWSLEGRRISTVVMDREIPSMDVGLAWRRNQEMPNAARHFVDYFRNAYLSPQMAHTAWRG
MGSDKIHHHHHHMNNKEIFEELATLARQPAIWFAARSFYGHGGNQRPDNSRRLLRVLAETDNNLTAGAIADILAIRPASVTQIIKKLENDEYIQRVRDESDARVVRVKITSKGRKQLELLEDKQSDFQTELFDVFDDDERQRFGESLRKLNEHVMSDEYLDNMRSKMDKHMRFGFDHFVNVSNARKFHENQTGYLKKMRQHQQQSPFNDEDNEGI
MGSDKIHHHHHHMNNLPLLDNNWNTDLYEDKHAFVWQYGENLLKVLNPKLGESILDLGCGTGQLTEKIAQAGAEVTGIDRASSMIETARQNYPHLRFDVADARDFQVLKPLDAVFSNAVLHWIKEADAAIASIHQALKPGGRFVAEFGGKGNIQAIVTALYSALEAIAISPQALNPWYFPSIGEYATLLEQQGFDVTYATLFARPTPLTEGEAGMANWLEMFADVFLAGLSADQKIQIIRTVEEHLLPTLYQQGNWTADYRRIRIVAIKL
MGSDKIHHHHHHMNNSLAFNHDTLPQKVMFGYGKSSAFLKQEVERRGSAKVMVIAGEREMSIAHKVASEIEVAIWHDEVVMHVPIEVAERARAVATDNEIDLLVCVGGGSTIGLAKAIAMTTALPIVAIPTTYAGSEATNVWGLTEAARKTTGVDLKVLPETVIYDSELTMSLPVEMSVASGLNGLAHCIDSLWGPNADPINAVLAAEGIRALNQGLPKIVANPHSIEGRDEALYGAYLAAVSFASAGSGLHHKICHTLGGTFNLPHAQTHATVLPYVLAFNAGDAPEAERRAAAAFGTDTALEGLQRLRLSVNAPKRLSDYGFEASGIAEAVDVTLEKVPANNPRPVTRENLSRLLEAALNGEDPAVLSAVLSN
MGSDKIHHHHHHMNPELLQKYIAGNATEAEKQRVTEWIQENPENMREYMAQRKLHDMALWRTEPVAEENSRERKHFSLRGVCMEAAKIAAVLAIVLLGTHYWTGKHQVPEDKTWQSIYVPAGQRAELMLADGTKVWLNSRSTLTFPGSFKGNIRNVKLDGEGYFAVTKNVEQPFIVETNKCNVKVLGTEFNVMAYAADSVWETSLLEGAVEILVPGSNNSGMRLEPNMMASLKGNRLVKGRIKEVDYFLWREGLLCFNDISVRDMIEKLKLYYGVDIVVNNTRILKNRYTGKFRTKDGVEHVLKVLRLNNKFTYTKDDETNVITIN
MGSDKIHHHHHHMNPGIEKYEIRFDFDLKDFTYTSHERIHLAGDWKDIKLDAVRLSVDKVTCNGQPMRFETGQDTVTVKGSFHDKDVIDIDFHAKVSDTLMGLYLSRTKEGTMITTQFESNGARMAFPCVDHPAYKAVFAITVVIDKDYDAISNMPPKRIEVSERKIVEFQDTPKMSTYLLYIGVGKFKYATDKYRDIDLILVSLKDIKSKYPLEIARKSIEFYESYFGIPYALPKMHLISVPEFGAGAMENWGAITFREVALMATENSGSIMKQNAAITIAHEIAHQWFGDLVTMKWWNDLWLNESFATFMSYKTVDSFSKQWDVFADFIRSETGGALRSDSLKNTHPIEVDVKDPDEISQIFDEISYGKGASILRMIEDYAGYEEFRKGISKYLNDHRYGNAEGSDLWTAIEDVSGKPVKRVMEYWIKNPGYPVVSVVKSGNKFRLTQEQFFLDGTRGQGKWPIPLTVMTKSGKKAMLMEESAEIEDMVKVNVNSSGFYRVSYDGESFETVMKNYSKLSNLDRWGLISDLYAFLISGRVSVDDYLARIKGFFEDSDHLIVEEIASQLTGLYLLKPDSNRIRETAASYLSRQVVALGDKQKGEDDKISKIRGIVTQDLAMVDDHFASDLARKFSTLAEDPDLALAKSIAAAKAYGISELASAADKYTDDEIRVRIIAAMGWCSPSDLKSVFELIDKGTIRKQDMLYVFSNMPANPKGRDFFFSNIDRIVALMEHAFEGTGYTSRILETAIPYLGLARYEDVKKKAEQIRKPSYNVGINKGLETLEIVRKLYNKL
MGSDKIHHHHHHMNPNFTWDDLQFFLAVARTGQLSTAARRLRTSHATVSRRIDRLEFALKVKLFERNPRGYVLTTMGQRFVETAERMERETEQLQLDISDGMTAQRGVVRLSTLEGFGNFFLADRLGEFAERYPNISLELVAIQQIMSLSRKEADIAVALAAPKAGAYHAEVLTPYTLHVYGARSYLAGQPPIRTRSDLGSHRFVGYIDDMIFTPGLDYLGEIQPGLRAHFQSSSILTQLKAVRQGLGLCVLPHFMAKDEPNLEIVLPDEIELKRTYWLICHRDLIAIPRVRAVRDFLVDAAVENRGCFLRETPFALTGPRRVLERQ
MGSDKIHHHHHHMNPSPLPYFLGCPSWSENAWRDYLYPADANSNQMLGFYSQVFNAVEGNTTFYARPAPGTIARWAQLMPEHFRFTAKFPRDVSHEGDLRDQLEPAFDFTRLMAPLGRRVSPYWLQLPAQFGPARLGELCHFLDQIAVPVAVEVRNQAFFAKGEEERLLNRLLHERGVERICLDPRALFSCTSRDPAVLHAQSKKPKVPPRPAAFSQHPQVRFIGHPELEANHTFLSPWVEKVAAWIEEGRNPYIFLHTSDNRLAAALAQRFHQRLMARLPGLAPLPELPRAPEVEQLGLL
MGSDKIHHHHHHMNRDYVCSEMFCMGTIISQKIYGEDKKEVLFKVENEMRRLEKAMNFYSSSSEISKLNKFGFENEIKLSKDVYHVIKNAKNFSKKTLGAFDISLAPIIKLWGIFCENERVPSVKEIEKNLSLVNYKNLVLNDYKRTVKFLVEDMKVDLGGIAKGYAADRAIDIYKGGGVKSASINLGGNVSVIGEKPDGKSWCIGVQNPLKKRGEIIGAISVKNKSVVTSGSYVRYFEKDNIKYHHIIDPKTGYPAKEELLSVTVIFENSMLCDAVSTAAFIAGADGGIELVKRFRDVEAIFITKDRKVIITKGIAKSFSLVEESGFQYL
MGSDKIHHHHHHMNRESMRPQFAPARSPSDVAMISRHIEAGVHRLPRAPHHRVMVHASAATRSYCNQVGRYFVRRAGDIDLVPAGEEGGFEAETAFDTVEIVLPPALMERVAAELGGRALVSRLDTRHLLRDQRIEHLARALQNDLDAGAPSGSLFADSIGAALAVRLLGVDDDIDIERTNRLSDTQLKRVLEHIEAALHEPLSIDRLARVAGASSSHLRTWFKVATGVTLHRYVLRRRVERARLLLERGDLSTSEVAELTGFAHQSHLAHWMRREIGQTPRDVRRARPPK

Source: the DeepSol protein solubility set
